From PMC7225076
Read-outs that look alike come from different tables or passages of the source.

Tests used:
Assay in all cases: EMSA
WT mDHX36 (46-982) [1] = biological target: T1, WT mDHX36 (46-982) (Mus musculus, UniProt B2RQS6 46-982)
T1 sequence: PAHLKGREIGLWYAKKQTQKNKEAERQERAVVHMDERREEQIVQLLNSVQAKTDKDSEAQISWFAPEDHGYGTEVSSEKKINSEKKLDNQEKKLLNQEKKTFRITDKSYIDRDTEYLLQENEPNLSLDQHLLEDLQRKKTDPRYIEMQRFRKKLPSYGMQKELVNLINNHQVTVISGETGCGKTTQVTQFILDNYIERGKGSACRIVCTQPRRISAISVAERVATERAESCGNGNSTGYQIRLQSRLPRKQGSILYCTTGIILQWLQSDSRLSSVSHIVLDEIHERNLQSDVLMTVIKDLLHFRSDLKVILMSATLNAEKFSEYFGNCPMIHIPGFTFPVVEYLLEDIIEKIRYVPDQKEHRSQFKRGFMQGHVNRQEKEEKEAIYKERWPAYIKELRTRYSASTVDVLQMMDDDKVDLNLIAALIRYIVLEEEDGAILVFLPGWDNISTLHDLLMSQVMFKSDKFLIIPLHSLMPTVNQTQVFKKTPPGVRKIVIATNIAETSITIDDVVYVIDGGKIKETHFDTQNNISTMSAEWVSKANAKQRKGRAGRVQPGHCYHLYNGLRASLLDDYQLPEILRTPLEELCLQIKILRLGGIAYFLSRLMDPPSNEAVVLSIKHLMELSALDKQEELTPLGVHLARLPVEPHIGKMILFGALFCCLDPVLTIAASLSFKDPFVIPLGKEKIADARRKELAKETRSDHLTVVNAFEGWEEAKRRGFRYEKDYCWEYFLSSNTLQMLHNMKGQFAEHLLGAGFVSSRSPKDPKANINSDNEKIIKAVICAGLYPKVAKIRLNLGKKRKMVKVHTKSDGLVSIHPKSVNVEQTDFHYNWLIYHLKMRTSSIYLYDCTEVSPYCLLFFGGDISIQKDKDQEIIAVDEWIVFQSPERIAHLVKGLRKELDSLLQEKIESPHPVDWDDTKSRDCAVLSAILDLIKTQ

mDHX36 delta-OB-fold = biological target: T2, mDHX36 delta-OB-fold (Mus musculus, UniProt B2RQS6 46-834+895-981, internal_change)
T2 sequence: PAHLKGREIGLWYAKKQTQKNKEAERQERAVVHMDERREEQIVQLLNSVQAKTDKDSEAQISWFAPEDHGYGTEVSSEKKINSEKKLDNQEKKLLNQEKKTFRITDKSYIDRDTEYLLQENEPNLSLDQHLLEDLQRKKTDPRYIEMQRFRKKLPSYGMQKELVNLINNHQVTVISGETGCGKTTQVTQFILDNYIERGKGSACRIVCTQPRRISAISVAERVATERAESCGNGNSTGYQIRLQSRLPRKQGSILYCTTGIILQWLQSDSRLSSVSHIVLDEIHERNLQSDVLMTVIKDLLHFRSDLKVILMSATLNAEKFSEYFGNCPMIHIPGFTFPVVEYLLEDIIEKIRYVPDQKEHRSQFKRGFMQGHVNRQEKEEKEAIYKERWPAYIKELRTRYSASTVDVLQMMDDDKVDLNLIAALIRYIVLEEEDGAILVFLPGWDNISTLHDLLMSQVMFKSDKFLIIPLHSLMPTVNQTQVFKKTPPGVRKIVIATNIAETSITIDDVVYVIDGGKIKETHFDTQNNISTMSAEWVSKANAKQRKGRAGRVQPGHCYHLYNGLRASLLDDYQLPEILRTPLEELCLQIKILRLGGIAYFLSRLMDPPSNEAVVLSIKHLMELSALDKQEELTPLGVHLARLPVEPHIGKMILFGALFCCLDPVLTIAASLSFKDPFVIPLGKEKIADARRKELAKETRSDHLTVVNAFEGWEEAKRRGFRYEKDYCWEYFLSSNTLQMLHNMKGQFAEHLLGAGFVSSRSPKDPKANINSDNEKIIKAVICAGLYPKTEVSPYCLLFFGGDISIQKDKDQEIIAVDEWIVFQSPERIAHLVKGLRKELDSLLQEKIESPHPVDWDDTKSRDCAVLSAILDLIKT

WT mDHX36 (46-982) [2] = biological target: T1, WT mDHX36 (46-982); remark: listed apart in the source

UUAGGGGGAGGGGGAUGGGGGAGGGGGAAAAAAAAAAAAAAA (structured_RNA) [GQI (GQ1) intramolecular RNA G-quadruplex]
binding result (WT mDHX36 (46-982) [1]): binds
apparent K (half saturation) (mDHX36 delta-OB-fold): ~50 nM

B1: RNA duplex R16/R31 (dsRNA)
RNA 1: AGCACCGUAAAGACGC
RNA 2: GCGUCUUUACGGUGCUAAAAAAAAAAAAAAA
binding result (WT mDHX36 (46-982) [2]): binds
